{
  "source": "paper PMC5340040",
  "about": "(BMC Biochemistry, 2017)",
  "origin": "cited, not measured here",
  "molecules": {"B1": {"name": "eEF1A: eukaryotic elongation factor 1 alpha (protein, UniProt P02994 2-458, looked up)", "Elongation factor 1-alpha": "GKEKSHINVVVIGHVDSGKSTTTGHLIYKCGGIDKRTIEKFEKEAAELGKGSFKYAWVLDKLKAERERGITIDIALWKFETPKYQVTVIDAPGHRDFIKNMITGTSQADCAILIIAGGVGEFEAGISKDGQTREHALLAFTLGVRQLIVAVNKMDSVKWDESRFQEIVKETSNFIKKVGYNPKTVPFVPISGWNGDNMIEATTNAPWYKGWEKETKAGVVKGKTLLEAIDAIEQPSRPTDKPLRLPLQDVYKIGGIGTVPVGRVETGVIKPGMVVTFAPAGVTTEVKSVEMHHEQLEQGVPGDNVGFNVKNVSVKEIRRGNVCGDAKNDPPKGCASFNATVIVLNHPGQISAGYSPVLDCHTAHIACRFDELLEKNDRRSGKKLEDHPKFLKSGDAALVKFVPSKPMCVEAFSEYPPLGRFAVRDMRQTVAVGVIKSVDKTEKAAKVTKAAQKAAKK"}},
  "system": "actin",
  "settings": "ref [10]",
  "text": "Actin is a negatively charged structural protein and the most abundant protein in the eukaryotic cells. Actin, released from dead cells, is also present in the saliva. Actin has important roles in cytoskeleton formation, cell division, motility, adhesion, signaling and more. Actin exists in either monomer globular (G) or polymer filament (F) form, which are interconvertible into each other.",
  "data": [
    {"molecule": "B1", "values": [
      {"measurement": "polymerization and bundling of actin, eEF1A", "value": "polymerize G-actin to F actin and bundle F-actin into actin bundles"}
    ]}
  ]
}
